{
  "source": "paper PMC11898079",
  "about": "“Single-Molecule Imaging of Wood Xylans on Surfaces and Their Interaction with GH11 Xylanase” (Biomacromolecules, 2025)",
  "proteins": {"B1": {"name": "Endo-1,4-β-D-xylanase from Neocallimastix patriciarum (GH11) (enzyme)", "chain": "AEFQSFCSSASHSGQSVKVTGNKVGTIGGVGYELWADSGNNSATFYSDGSFSCTFQNAGDYLCRSGLSFDSTKTPSQIGRMKADFKLVKQNSSNVGYSYVGVYGWTRSPLVEYYIVDNWLSPFPPGDWVGNKKHGSFTIDGAQYTVYENTRTGPSIDGDTTFNQYFSIRQQARDCGTIDISAHFDQWEKLGMTMGKLHEAKVLGEAGNVNGGASGTADFPYAKVYIGD", "notes": "Endo-1,4-β-D-xylanase, glycoside hydrolase family 11, Neocallimastix patriciarum; printed Mw 25,800 g/mol; Commercial enzyme; also called GH11 xylanase; GH11 endoxylanase; source: bought: Megazyme Ltd"}},
  "molecular_target": "the molecule itself",
  "test": "high-speed atomic force microscopy (HS-AFM); xylanase alone on a clean mica surface, tapping mode, 100 mM sodium phosphate buffer pH 6; 2 uL of 12.5 ug/mL xylanase added into 80 uL buffer during imaging; self-association seen as transient dimers and trimers of single molecules on the surface",
  "note": "Values joined by “and” are separate entries in the source; they are usually repeats but may differ in a detail not shown here. Equal values may be shown once.",
  "data": [
    {"protein": "B1", "values": [
      {"measurement": "stoichiometry N", "value": "2 and 3"}
    ]}
  ]
}
